The text below walks through data of publication doi:10.1101/776245.

In the experiment the target is SERP2475 (Nhi), full-length (Staphylococcus epidermidis RP62a). Kind of experiment: SEC.

A word on the stoichiometry N: it is a count of units in the complex or per binding partner. SERP2475 (Nhi), full-length (enzyme) gave a stoichiometry N of 2.
